Reference: PMC10019796

Target: mtDsbC-SARS-CoV-2 RBD wild type fusion protein (SARS-CoV-2) (UniProt P0DTC2)
Assay: BLI; biotinylated mtDsbC-RBD (20 µg/mL) immobilised on streptavidin (SA) biosensors, Fabs as analytes at three nanomolar concentrations; Octet RED384, 30 °C, 1000 rpm, 1 × PBS Kinetics Buffer; 1:1 interaction model, global fit

REGN10987 (L93Q) Fab
Kd: > 1000 nM
